Earlier results in paper PMC8291714.

Molecular target: N protein (N-RNA ring) (Rabies lyssavirus) (UniProt Q8JXF6)
Sequence of UniProt Q8JXF6 (Q8JXF6 whole entry): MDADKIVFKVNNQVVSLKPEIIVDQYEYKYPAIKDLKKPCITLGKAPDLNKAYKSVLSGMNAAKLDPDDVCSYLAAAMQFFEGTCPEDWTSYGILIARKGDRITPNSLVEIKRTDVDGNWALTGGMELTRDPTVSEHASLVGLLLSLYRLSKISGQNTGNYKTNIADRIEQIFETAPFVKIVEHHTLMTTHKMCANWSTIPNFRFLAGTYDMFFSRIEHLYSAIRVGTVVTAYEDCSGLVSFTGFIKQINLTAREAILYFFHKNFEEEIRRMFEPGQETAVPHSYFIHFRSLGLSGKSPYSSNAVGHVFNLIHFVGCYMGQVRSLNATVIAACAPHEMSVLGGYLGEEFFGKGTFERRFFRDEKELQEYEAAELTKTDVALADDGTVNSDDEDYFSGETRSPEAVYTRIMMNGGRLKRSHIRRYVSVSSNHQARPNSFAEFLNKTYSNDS

Which Kd does the source give for P protein CTD (from UniProt P22363) here?
Its Kd is 0.16 µM.
